These are literature values, as cited in article PMC11668491.

pKd: −log10 of the molar value.

This series addresses UBC2 (Saccharomyces cerevisiae) (UniProt P06104).
UniProt P06104, sequence (P06104 whole entry): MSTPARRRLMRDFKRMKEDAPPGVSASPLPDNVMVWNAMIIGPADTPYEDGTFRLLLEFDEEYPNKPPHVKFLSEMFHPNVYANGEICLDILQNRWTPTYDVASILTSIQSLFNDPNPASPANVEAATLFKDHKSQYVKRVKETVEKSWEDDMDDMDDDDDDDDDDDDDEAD

UBR1 U2BR (from UniProt P19812): the pKd was 6.85.

For orientation: pKd means the negative decadic logarithm of the Kd, by convention in mol/L.
